The PETadex activity labels

B1: unnamed (protein)
chain: MSAADRMCPFRTLLMLLGLSMMARPTRASMRRRGRHSSITTGDSMTHIAIGLRHWAQVAVLLASVAMSALAAAQNNPYAKGPDRTTADLEAELGSFAVASASIPRANASGFGGGTIYYPTASGSCGAISISPGYTATQVNIAWLGPRLASRGFVVITIDTFTTSDLPDSRATQLQAALNQAVSLSQTAGHVIYGKVDARRLAVAGDSLGGGGALLAGLNNPMLKAAVGLVPYSYTQNFSTEQVPTLMIGGQKDTTATPSKHAIAFYNSIPSTTDKAYMELAGADHYLPHRTQYFPVIGRYMIAWYKRFVDNDTRYSPFLCGAIQQADVANTALVSKYLQNCSY
B2: unnamed (protein)
chain: MKITAHKTARGVANFAKASLFVAALAVTSLANAQYQKGPDPTVSALERNGSFATRSTTVSRLSASGFGGGTIYYPTASGSYGAIAVSPGFTAYQSSISWIGERLSSHGFVVITIDTITTSDQPESRGNQLKAALDKVVSLSRTSSSPLYNKVDASRLGVAGHSMGGGGTLAAARDNPSYKAAVPLAPWHTTKSWSRVSVPTLIIGGSTDAIAGVALHSIPFYTSLPSSTKKAYMELSGEGHFYPQLPSNYPIVGRYMISWFKRFMDSDTRYSPFLCGAQHQADLRLFGPFSDYRENCPY
B3: unnamed (protein)
chain: MKTSRTRRLALAAAALLLSVAAQAQSSNPYQRGPDPTAASLEASSGPFAVSTTTVSSASGFGGGTIYYPTNTEGPFAAIAVVPGFTGTQSSISWWGPRLASHGFVVITIDTNSTFDQPDSRATQLMAALNYVVSQSNTSSSPIYGKVDSNRLGVMGHSMGGGGTLIAARDNPTLKAAIPLAPWNSSTNFSSVTVPTLIIACENDTVAPVSSHASPFYNSIPSSTDKAYLEINGGDHFCANSGNSNKAILGKYGVAWMKRFLDNDTRYDPFLCGAPHQADGSAISEYRDNCPY
B4: unnamed (protein)
chain: MKSTQGSKFALSLLTAGTLLFSMSALGFNAPDPDPQPDPDPCEGDCGYTRGPDPTTSLLEASSGPYSVRTDSVSSRVSGFSGGTIYYPTGTSGRMGAIVVAPGFLSPESSISWWGPRLASHGFVVITVQINSGYDQPASRQAQMDAALDHVISESNSSSSPISGMVDSSRLGAMGWSMGGGGALRMAAGDRLSAAIPLAPWHSGRDNFDQIRTPTLIFACENDSVAPVRSHASPFYNDIPNSTSKAFFEINGGSHTCANGGRSNGDLLGRIGVSWMKRHIDQDTRYNQFLCGPNHESDGDISEYRGTCPL
B5: unnamed (protein)
chain: MNSHRASRLVRAALAAGALLLSAAASAQTNPYQRGPNPTASSLEASRGPFSVRSFTVSRPSGYGAGTVYYPTNAGGTVGAIAIVPGFTARQSSINWWGPRLASHGFVVITIDTNSTLDQPSSRSSQQMAALRQVATLSGTSSSPIYNKVDTSRLGVMGWSMGGGGSLISARNNPSLKAAAPQAPWNSSTNFSSVTVPTLIIACENDTIAPVNSHASPFYNSMSRNPKQFLEINGGSHSCANSGNSNQALLGKKGVAWMKRFMDNDTRYTSFACSNPNSTRVSDFRVASCS
B6: unnamed (protein)
chain: MATFNQLMHWSLAGLAVSMLGACGGGGGGGTPDAPPVMTPAPLPAPIPAPLPPLPPPPPAPTACTTSCRGADPTPASVEADAGPYAVATLALTQANGAAAMVYYPTGSSESFGAVVTMPGWDGDQSNLQWLGPRLASNGFVVINVDTPARRGDFPDARARFGVQALDQVVTLSATPGNALSGKVDAARLGMVGHSMGGGAALVAARDHPGLFKAVVPLSPWYDQATRDFPSATPALVFVCTGDMTASVAGYALPVYDSLRSHKAYVEAAHVPVPGGDAHNCVRTGVANRPKLGKTVVSWLKLWLDGDPRYLPFVCGAQNPGTDAGFTNVWRSSCPF
B7: unnamed (protein)
chain: MRSSHVRIKKDKRATRMRSAPVSAREPTSARRVTHAQRADPLDRQRRQPMRFQQHASRLIKASILGSLVVLSAAATAQTNPFARGPNPTASALEATSGPFTVRNFTVSRPSGYGAGTVYYPTNAGGTVGAIAIVPGYTARQSSINWWGPRLASHGFVVITIDTNSTLDQPGSRSSQQMAALRQVVSLNGTSSSPIYNKVDTSRLGVMGWSMGGGGSLISAANNPSLKAAAPQAPWNTSTNFSSLTVPTLIFACENDSIAATRSHASPMYNSMRNNPRQYLEITRGSHSCANSGNSDRGLLGKKGVAWMKRYMDNDTRYTTFACQNPNTSRVSDFRVANCS
B8: unnamed (protein)
chain: MKRTLSLRRLWQAMAACASLCIAAAASAQVGPDPTSAGLEASAGPFTVSTSSVSSYVRGFGGGTIYYPSAAGQYGVVAISPGFTATQSSVAWLGRRLASHGLVVITINTNSVFDMPASRATQLMAALNHVVSGASSTIRSRVDSTRLAVSGHSMGGGGALIAAQNNPTLRASLPLTPWNNATNFDTVRVPTLIFGADGDTVASASSHARPFYASLPATTLKAYAELNNANHSTPNSTNTPIGRYSVAWMKRFVDADARYSPFLCGEPHRTYATPAVFDRYNQNCPY
B9: unnamed (protein)
chain: MPDADTGRRANRCGAGNPAEGNPVITTRKRLVRRLAALVLVAFALVACDIKGPDPTDAILTASSGPFGVGTLAVPTSAGFGGGTIYYPTGVDGPFAVISVAPGFTETASAVAEWGPRLASHGFVTIVFNTSNTFENPSTRSTEQRQALTYTINQSNTAGSPIAGLVDGNRRGVAGHSMGGGGTLISEQADSTIRAGVPLAPWNTSPDFPDITVPTLFLACQNDSIAPVANHASPMYESIPATTHKSFVSFAGGDHFCANSPTGGSSNAGKFAVAFFKKFLDGDTRYDPWVCGASKPAVNSAINEVRSTCPF
B10: unnamed (protein)
chain: MRKLLRRGPMRLLAVGLVIAVGVLATACDWRGPEPSDQLLTGTGPFGIGTISVPASAGFGGGTIYYPTGNPGPFAVVSFSPGFLEQSGAFPGWGNKLASHGFVAILFNTSNTGEFPDARSTEQRQALTYVINQGQNPSSPIFGLVDGNRTAVMGHSMGGGASLISAQADHTIDAVIPVAPWNGGTNFSGITSPTLVVACQSDSTAPVNSHASPFYNSIPSTTKKEYLSVAGGDHFCANDPSLVGGGNIGKYAVAFLKRWLDTDTRYDPWTCGASKATAGSVFNEVRSTCPW
B11: unnamed (protein)
chain: MTIRPFVRNAVLAAGLLVGAASAQAQVAVFQENFSNGLGAFTASGTVSTGTGAARLQGCYGCTDGQIVSSAISTQGFTNLSLSFDRVTSGLYIGESGTAEFSVDGTNWTVVESTRVTSPGRVTFDLPASAAGQAALRLRFRIDARLSSETYTVDNVELTGTVGDTGGGTPGANPYAKGPDPTVALLEAGTGPFTYTRTTVSRTAASGYGGGTIYHPTGVAGPFGAIAISPGYTAYQSSISWLGERLASHGFVVITIDTFTTSDQPSSRATQLMAALRQLVAYGNTSSHPIYGKVDPNRLGVMGHSMGGGGSLIAARDNPSLKAAVPLTPWNTSSNFTAVQVPTLVVGCEADTVAPVAQHASPFYNNIPSTTKKAYLELANASHFCPVTGNGYTRLLGKYGVAWMKRFVDNDTRYSPFLCGAPHRADLSNGQLSAYRENCPY
B12: unnamed (protein)
chain: MTLTSTLRRQTRTTATATVLAAAAALALCAAPASAQQTGPNPTSSSLNATSGPFAVSSVSVVAPTGFGGGTIYYPTTAGQYGVVAISPGFTATESSIAWLGRRMATHGFVVVTINTLTTLDQPASRATQLMAALNHVVNSASSTVRSRVDPNRRAVAGHSMGGGGALIAAENNPGLKAALPLTPWNLTTNFSDVQVPTLIVGADGDTVAPAAIHARPFYASLSSSVRKAYAELNFSTHFTPNTTNTPIGRYGVTWMKRFVDGDTRYSTFLCGAEHNAYNTALVFERYSQNCPY
B13: unnamed (protein)
chain: MRALLSPTRRRLMTRVSTLSTLPLRRVLCSLALSAVAAAASAQTAPPTSASLNATAGPLAVSSVAISGATGFGGGTIYYPQAAGSYGVIAISPGYGARGSSLAWLARRLATHGFVVAAINTTSTMDSPPSRGPQLMAALDHVVNKADANVRSRADGSRMAVMGHSAGGGGALVAARDNPTLKAAVALTPGSFGNFYSGVRVPTIIFGADGDTITPVTSQARPAYNSIPVTTPKAYGELNNATHLTPVSTNTPIGRYSVAWAKRFVDGDTRYS
B14: unnamed (protein)
chain: MHETNTRVRAGRACGCARAVRRVERGRVGRGRCLMRYRAFAWWWVCACLLLACGDTSGGNADETGPVTGQQPAAGASGQSASGTGGGTPAMPMSGGTSAGSAGRAGSAGMPPPAAGMGSMAGEGGTAGTDADAGASGVGGSAGGTSGVGGSAGSAGEGPDPEGPDPTTESASRAGPLNVESIPWTEFRNGPDFAGGTIWYPTDGEPPYPFVAIVPGFTAYESSIRSWGPFLASHNIVAITIDTNTTADQPPTRAAALLDALESVAAENSRSGSPLMDKLDESRQALMGWSMGGGGTLIAANRTPSLKAAISLCGWNPLGSYSMMTVPSLMFASLGDPLAGGQSQGFYRSIPDTTPKMLIEAGVADHFVANNPAYLNGLIGRYGLSWLKVFMVGDERYRQFLLEMPQGTTDYASNVE

Substrate: BHET
Conditions: 120 h

Protein	plate clearing
B1	not clears the plate
B2	not clears the plate
B3	clears the plate (z > 3 vs empty vector)
B4	not clears the plate
B5	not clears the plate
B6	not clears the plate
B7	not clears the plate
B8	not clears the plate
B9	not clears the plate
B10	not clears the plate
B11	clears the plate (z > 3 vs empty vector)
B12	not clears the plate
B13	not clears the plate
B14	not clears the plate
